Measurements as given in paper doi:10.1101/2025.11.18.689162 (bioRxiv, 2025).

Target: cardiac troponin I (TPNI), mouse, endogenous (mouse (endogenous in heart), UniProt P48787 1-211)
Test: cell-based or functional assay

Sequence of cardiac troponin I (TPNI), mouse, endogenous (P48787 whole entry): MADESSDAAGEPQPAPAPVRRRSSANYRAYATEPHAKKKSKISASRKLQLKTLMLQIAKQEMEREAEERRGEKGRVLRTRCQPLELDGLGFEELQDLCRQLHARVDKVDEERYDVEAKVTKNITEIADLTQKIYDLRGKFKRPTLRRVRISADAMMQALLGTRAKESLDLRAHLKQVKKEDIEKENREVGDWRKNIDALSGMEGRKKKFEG

B1: PDE4D9, mouse, endogenous (enzyme, mouse (endogenous in heart), UniProt Q01063-2 1-678, looked up)
chain: MSIIMKPRSRSTSSLRTTEAVCFDVDNGTSAGRSPLDPMTSPGSGLILQANFVHSQRRESFLYRSDSDYDLSPKSMSRNSSIASDIHGDDLIVTPFAQVLASLRTVRNNFAALTNLQDRAPSKRSPMCNQPSINKATITEEAYQKLASETLEELDWCLDQLETLQTRHSVSEMASNKFKRMLNRELTHLSEMSRSGNQVSEYISNTFLDKQHEVEIPSPTQKEKEKKKRPMSQISGVKKLMHSSSLTNSCIPRFGVKTEQEDVLAKELEDVNKWGLHVFRIAELSGNRPLTVIMHTIFQERDLLKTFKIPVDTLITYLMTLEDHYHADVAYHNNIHAADVVQSTHVLLSTPALEAVFTDLEILAAIFASAIHDVDHPGVSNQFLINTNSELALMYNDSSVLENHHLAVGFKLLQEENCDIFQNLTKKQRQSLRKMVIDIVLATDMSKHMNLLADLKTMVETKKVTSSGVLLLDNYSDRIQVLQNMVHCADLSNPTKPLQLYRQWTDRIMEEFFRQGDRERERGMEISPMCDKHNASVEKSQVGFIDYIVHPLWETWADLVHPDAQDILDTLEDNREWYQSTIPQSPSPAPDDQEEGRQGQTEKFQFELTLEEDCESDTEKDSGSQVEEDTSCSDSKTLCTQDSESTEIPLDEQVEEEAVAEEESQPETCVPDDCCPDT
TPNI phosphorylation in TAC mice treated with scAAV9-P33 against scAAV9-SC: 2.8 fold
